Test results from patent publication US7875275B2, “Use of Bridge-1 and activators and inhibitors thereof in the treatment of insulin deficiency and diabetes” (The General Hospital Corporation, priority 2004, dated 2011).

How the values were obtained:
[1] = target: T1, Bridge-1 (Gal4 DBD-Bridge-1) (Rattus norvegicus, UniProt Q9WTV5); assay: Gal4-Bridge-1 transactivation assay in BHK cells (Gal4-luciferase reporter); format: cell-based
T1 construct: excision of full-length rat Bridge-1 cDNA from the previously reported Gal4-Bridge-1 (pM-Bridge-1) vector; expressed in transfected cells; host or cells: BHK cells (BHK-21 C-13), transient transfection
Procedure: FIG. 17 (a-d). The coactivator Bridge-1 interacts with multiple domains of p300. (a) Trichostatin A increases transcriptional activation by Bridge-1. BHK cells were transfected in duplicate with 1.5 μg Gal4-Bridge-1 or empty Gal4 expression vector, 3.25 μg pBluescript, and 250 ng of a Gal4-luciferase reporter and treated with vehicle (0), 2, or 4 ng/mL trichostatin A for 24 hours. Results shown are the mean+/−SEM relative luciferase activity of Gal4-Bridge-1 normalized to the empty Gal4 expression vector (n=3-5 transfections). (b) p300 increases the transcriptional activation by Bridge-1. BHK cells were transfected in duplicate with 0-3 μg of the p300 expression vector pCMV-p300 and 0.5 μg Gal4-Bridge-1 or empty Gal4 expression vector and 1 μg of a Gal4-CAT reporter. pBluescript was used to normalize the total DNA content for all conditions. Data shown are the mean of two transfections. (c) Bridge-1 directly interacts with p300. GST-Bridge-1 or GST control proteins were incubated with in vitro translated, radiolabeled [^35S]-p300 in GST protein interaction assays. A representative autoradiogram is shown of an SDS polyacrylamide gel from a GST pull-down protein interaction assay with the migration position of [^35S]-p300 designated (arrow). (d) Bridge-1 interacts with multiple domains within p300. […]
Various compounds were assayed for their ability to activate or inhibit Bridge-1 transactivation function. In these experiments, the transactivation assay previously described (Thomas, M. K. et al., Mol. Cell. Biol. 19(12):8492-8504 (1999)) incorporated herein by reference) was used with the modification that the plasmid reporter was a Gal4 luciferase reporter with luciferase activity measured rather than the Gal4CAT reporter used in 1999. […]
(§1) Cell culture and transfections. […] Transfections were conducted with Lipofectamine or Lipofectamine 2000 (Invitrogen Life Technologies) according to published methods (Thomas, M. K., et al., Molec. Cell. Biol. 19:8492-8504 (1999). Yeast transcriptional activation assays were conducted as previously reported (Thomas, M. K., et al., supra; Golemis, E. A., et al., Current Protocols in Molecular Biology, Ausubel, F. M., et al., eds., John Wiley and Sons, pp. 13.14.1-13.14.17 (1994)) with quantitative LexA-operator responsive beta-galactosidase reporter assays as outlined by the manufacturer (BD Biosciences Clontech, Palo Alto, Calif.).

Gal4-Bridge-1 = target: T2, Gal4-Bridge-1 (UniProt P04386+Q9WTV5); assay: Gal4-Bridge-1 transcriptional activation of Gal4-CAT reporter in BHK cells; format: cell-based, rat; details: 0-3 μg pCMV-p300 expression vector
T2 construct: excision of full-length rat Bridge-1 cDNA from the previously reported Gal4-Bridge-1 (pM-Bridge-1) vector; expressed in transfected cells; host or cells: BHK cells (BHK-21 C-13), transient transfection
Procedure: FIG. 17 (a-d). The coactivator Bridge-1 interacts with multiple domains of p300. (a) Trichostatin A increases transcriptional activation by Bridge-1. BHK cells were transfected in duplicate with 1.5 μg Gal4-Bridge-1 or empty Gal4 expression vector, 3.25 μg pBluescript, and 250 ng of a Gal4-luciferase reporter and treated with vehicle (0), 2, or 4 ng/mL trichostatin A for 24 hours. Results shown are the mean+/−SEM relative luciferase activity of Gal4-Bridge-1 normalized to the empty Gal4 expression vector (n=3-5 transfections). (b) p300 increases the transcriptional activation by Bridge-1. […]
as §1

PDX-1 Bait = target: T3, PDX-1 Bait (Rattus norvegicus, UniProt P52947); assay: Semiquantitative yeast two-hybrid interaction trap assay; format: binding; set-up: key: ++: growth on leucine dropout plates and intense blue colonies on X-gal plates; −: no growh on leucine dropout plates and white colonies on X-gal plates; details: LexA-rat PDX-1 amino acids 160-283 bait, LEU2 and lacZ reporters
T3 construct: A LexA-rat PDX-1 bait fusion protein construct consisting of PDX-1 amino acids 160-283 cloned in the vector pEG202; expressed in transfected cells
Procedure: Yeast interaction trap assays. Semiquantitative yeast two-hybrid interaction trap assays were conducted as previously reported (Golemis et al., 1994; Thomas et al., 1999). A LexA-rat PDX-1 bait fusion protein construct consisting of PDX-1 amino acids 160-283 cloned in the vector pEG202 and an acidic domain-rat Bridge-1 fusion protein construct cloned in the vector pJG4-5 were independently tested for activation of LexA operator-responsive LEU2 or β-galactosidase (lacZ) reporters in yeast. Interactions of E12 with rat Twist and rat inhibitor of differentiation-3 (Id3) proteins were used as positive controls and interactions of Bridge-1 with the human interleukin-1 receptor or D. melanogaster bicoid proteins were used as negative controls for the assays (Thomas et al., 1999). Fusion protein interactions were measured independently by growth on leucine dropout plates as a measure of LEU reporter activation or by blue color intensity with growth for 72 hours at 30° C. on X-Gal (5-bromo-4-chloro-3-indoyl-β-D-galactopyranoside) plates as a measure of lacZ reporter activation.
We assessed whether Bridge-1 interacts with PDX-1 in a yeast two-hybrid interaction trap system. […] Thus the rat Bridge-1 protein interacts with a carboxy-terminal PDX-1 protein fragment in yeast cells.

[2] = Gal4-luciferase reporter, 24 hours incubation, vs vehicle

T3 sequence (P52947 160-283): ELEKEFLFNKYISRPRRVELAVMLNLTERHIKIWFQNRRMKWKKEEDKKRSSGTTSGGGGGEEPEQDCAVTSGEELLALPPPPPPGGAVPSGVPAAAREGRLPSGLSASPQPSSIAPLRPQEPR
T1 sequence (Q9WTV5 with tags, fused parts or gaps): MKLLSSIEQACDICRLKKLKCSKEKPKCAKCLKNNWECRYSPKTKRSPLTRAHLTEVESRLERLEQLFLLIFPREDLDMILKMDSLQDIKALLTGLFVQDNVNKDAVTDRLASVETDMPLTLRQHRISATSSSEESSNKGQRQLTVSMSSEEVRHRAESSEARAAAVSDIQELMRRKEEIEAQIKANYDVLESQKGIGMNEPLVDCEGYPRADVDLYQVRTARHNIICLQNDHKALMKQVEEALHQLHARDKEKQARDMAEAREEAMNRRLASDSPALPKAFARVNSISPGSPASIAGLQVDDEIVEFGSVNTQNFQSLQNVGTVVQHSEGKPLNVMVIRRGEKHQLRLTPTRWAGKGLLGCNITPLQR
T2 sequence (P04386+Q9WTV5 fused): as the sequence (Q9WTV5 with tags, fused parts or gaps) above

With Activin A the “activation of Bridge-1 transactivation function” value [1, 2] was 2.34 fold.

In the case of `CC(/C=C/C(=O)NO)=C\[C@@H](C)C(=O)c1ccc(N(C)C)cc1` [Trichostatin A], the “effect on transcriptional activation by Bridge-1” value ([1]; 2 or 4 ng/mL for 24 hours) is reported as “increased the transcriptional activation by Bridge-1 in a dose-dependent manner” and the “activation of Bridge-1 transactivation function” value [1, 2] is reported as 2.7 fold.

For “p300: histone acetyltransferase and nuclear receptor coactivator, expressed from pCMV-p300 vector”, the “increase of reporter activation by Gal4-Bridge-1” value (Gal4-Bridge-1) was “over 70 fold”.

`CC(=O)[C@H]1CC[C@H]2[C@@H]3CCC4=CC(=O)CC[C@]4(C)[C@H]3CC[C@]12C` [Progesterone] was tested, and the “inhibition of Bridge-1 transactivation function” value [1, 2] was 22%.

B1: Id3: rat inhibitor of differentiation-3 protein, control in yeast interaction trap assay (protein)
chain: MKALSPVRGCYEAVCCLSERSLAIARGRGKSPSAEEPLSLLDDMNHCYSRLRELVPGVPRGTQLSQVEILQRVIDYILDLQVVLAEPAPGPPDGPHLPIQTAELTPELVISKDKRSFCH
For B1, the “Interaction with PDX-1 Bait” value (PDX-1 Bait) was “−”.

B2: Twist: rat Twist protein, control in yeast interaction trap assay (protein)
chain: MMQDVSSSPVSPADDSLSNSEEEPDRQQPASGKRGARKRRSSRRSAGGSAGPGGATGGGIGGGDEPGSPAQGKRGKKSAGGGGGAGGGGGGGGSSSGGGSPQSYEELQTQRVMANVRERQRTQSLNEAFAALRKIIPTLPSDKLSKIQTLKLAARYIDFLYQVLQSDELDSKMASCSYVAHERLSYAFSVWRMEGAWSMSASH
In the case of B2, the “Interaction with PDX-1 Bait” value (PDX-1 Bait) is reported as “−”.

B3: Bridge-1: rat PDZ-domain transcriptional coactivator, acidic domain fusion in pJG4-5 (protein)
chain: MSSEEVRHRAESSEARAAAVSDIQELMRRKEEIEAQIKANYDVLESQKGIGMNEPLVDCEGYPRADVDLYQVRTARHNIICLQNDHKALMKQVEEALHQLHARDKEKQARDMAEAREEAMNRRLASDSPALPKAFARVNSISPGSPASIAGLQVDDEIVEFGSVNTQNFQSLQNVGTVVQHSEGKPLNVMVIRRGEKHQLRLTPTRWAGKGLLGCNITPLQR
modifications: left off: small tags and cut ends
In the case of B3, the “Interaction with PDX-1 Bait” value (PDX-1 Bait) is reported as “++”.
